Residue numbers refer to the chain shown, from its start.
T1: MSRV complete ENV protein (ENV-T), recombinant from E. coli (MSRV (Multiple Sclerosis associated …))
T1 construct: also called ENV-T 7A; His-ENV-T
T1 chain: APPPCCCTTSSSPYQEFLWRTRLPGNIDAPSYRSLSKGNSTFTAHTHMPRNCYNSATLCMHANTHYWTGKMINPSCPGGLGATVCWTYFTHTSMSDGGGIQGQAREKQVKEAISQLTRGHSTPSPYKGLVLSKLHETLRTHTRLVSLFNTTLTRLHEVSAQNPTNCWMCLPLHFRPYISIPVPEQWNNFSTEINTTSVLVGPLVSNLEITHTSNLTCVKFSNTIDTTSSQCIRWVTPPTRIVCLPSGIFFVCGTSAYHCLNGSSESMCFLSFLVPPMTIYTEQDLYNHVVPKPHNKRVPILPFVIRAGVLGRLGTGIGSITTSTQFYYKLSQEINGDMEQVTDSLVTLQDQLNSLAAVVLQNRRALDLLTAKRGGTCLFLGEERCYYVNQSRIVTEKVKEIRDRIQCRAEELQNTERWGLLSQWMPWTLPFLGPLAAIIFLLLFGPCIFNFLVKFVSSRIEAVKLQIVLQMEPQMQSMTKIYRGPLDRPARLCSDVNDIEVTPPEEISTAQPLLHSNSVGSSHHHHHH

B1: GNbAC1 murine monoclonal antibody (IgG1/kappa) (antibody, V domains shown)
VH: QVQLQQSGAELVRPGAPVTLSCKASGYTFTDYEMHWVKQTPVHGLEWIGAVAPETGGTAYNQKFKGKATLTAAKSSSTAYMELRSLTSEDSAVYYCTSTVVPFAYWGQGTLVTVSA
VL: QIVLTQSPAIMSASPGEKVTISCSASSSVSYMYWYQQKPGSSPKAWIYRTSNLASGVPGRFSGSGSGTSYSLTISSMEAEDAATYYCQQYQSLPLTFGSGTKLEIK
notes: Murine IgG1/kappa from hybridoma; also called murine IgG1; muIgG
B2: Chimeric GNb AC1 IgG4 (human IgG4 constant regions with murine VH and VL) (antibody, V domains shown)
VH: B1 VH with P17S
VL: QIVLTQSPAIMSASPGEKVTISCSASSSVSYMYWYQQKPGSSPKAWIYRTSNLASGVPGRFSGSGSGTSYSLTISSMEAEDAATYYCQQYQSLPLTFGSGTKLEIKR
notes: also called GNbAC1 chimeric IgG4; GNbAC1-IgC4
B3: Chimeric GNb AC1 IgG1 (human IgG1 constant regions with murine VH and VL) (antibody, V domains shown)
VH: B1 VH
VL: B1 VL
notes: Human IgG1 heavy constant region and human kappa constant region, made in CHO cells; also called GNbAC1 chimeric IgG1; Ligand in human IgG1

Experiments:
[1] = target: T1, MSRV complete ENV protein (ENV-T), …; test: ELISA; coated ENV-T 7A 0.0625; ligand 1 microgram
Procedure: (§1) II-1d Direct ELISA on Microplates Coated with ENV Antigen (ENV-T or ENV-SU as Described Above) [0159] Microwells were coated with 100 μl per well of ENV antigen diluted in 50 mM Sodium Bicarbonate, pH 9.6. Plate were sealed and incubated 2 hours at 37° C. under light agitation. [0160] Microwells were washed 4 times with 250 μl per well of PBS (Phosphate Buffer Saline). After the last, plates were inverted and blotted on absorbent paper to remove any residual buffer. [0161] 100 μl per well of detection antibody according to the present invention (GNbAC1 or its Fab fragment) diluted in PBS+BSA 1% (PBS with 1% of Bovine Serum Albumin) were added. Plate were sealed and incubated 1 hour at room temperature under light agitation. […] Microwells were washed 4 times with 250 μl per well of PBS. After the last, plates were inverted and blotted on absorbent paper to remove any residual buffer. [0163] […] Plate were sealed and incubated 1 hour at room temperature under light agitation. [0164] Microwells were washed 6 times with 250 μl per well of PBS. After the last, plates were inverted and blotted on absorbent paper to remove any residual buffer. [0165] 100 μl par well of Substrate Solution (1 tablet of o-Phenylenediamine (OPD) diluted in 10 ml of 0.05M Phosphate Citrate Buffer pH5+10 μl H2O2 30%, prepared at the last moment) were added. Plates were incubated 30 min at room temperature in the dark. […] 50 μl per well of Stop Solution 2N H2SO₄ were added. [0167] The absorbance was read at 490 nm within 30 minutes of stopping reaction.
(§2) Env-T antigen is coated onto microtiter ELISA plate wells with serial dilutions ranging from 1 μg/ml to about 0.01 μg/ml.

[2] = target: T1, MSRV complete ENV protein (ENV-T), …; test: ELISA; ENV-T 7A 1 ug/ml coated; mAb 0.0625 ug/ml
Procedure: (§3) Protocol: Incubation 2 h at 37° C. […] Revelation is made by adding OPD substrate and reading optic density with a spectrophotometer after 30 min (Washing steps with PBS are performed between every step).

[3] = target: T1, MSRV complete ENV protein (ENV-T), …; test: ELISA; ENV-T 7A 1 ug/ml coated; mAb 0.03125 ug/ml
Procedure: as §3

[4] = target: T1, MSRV complete ENV protein (ENV-T), …; test: ELISA; coated ENV-T 7A 0.5; ligand 1 microgram
Procedure: as §1, §2

[5] = target: T1, MSRV complete ENV protein (ENV-T), …; test: ELISA; ENV-T 7A 1 ug/ml coated; mAb concentration cell blank (top of series)
Procedure: as §3

[6] = target: T1, MSRV complete ENV protein (ENV-T), …; test: ELISA; ENV 0.5 ug/ml coated; mAb 1 ug/ml
Procedure: as §3

[7] = target: T1, MSRV complete ENV protein (ENV-T), …; test: ELISA; ENV 1 ug/ml coated; mAb 1 ug/ml
Procedure: as §3

[8] = target: T1, MSRV complete ENV protein (ENV-T), …; test: ELISA; ENV-T 7A 1 ug/ml coated; mAb 0.0156 ug/ml
Procedure: as §3

[9] = target: T1, MSRV complete ENV protein (ENV-T), …; test: ELISA; ENV 0.25 ug/ml coated; mAb 1 ug/ml
Procedure: as §3

[10] = target: T1, MSRV complete ENV protein (ENV-T), …; test: ELISA; coated ENV-T 7A 0.125; ligand 1 microgram
Procedure: as §1, §2

[11] = target: T1, MSRV complete ENV protein (ENV-T), …; test: ELISA; coated ENV-T 7A 0.25; ligand 1 microgram
Procedure: as §1, §2

[12] = target: T1, MSRV complete ENV protein (ENV-T), …; test: ELISA; ENV-T 7A 1 ug/ml coated; mAb 0.125 ug/ml
Procedure: as §3

[13] = target: T1, MSRV complete ENV protein (ENV-T), …; test: ELISA; ENV-T 7A 1 ug/ml coated; mAb 0.25 ug/ml
Procedure: as §3

[14] = target: T1, MSRV complete ENV protein (ENV-T), …; test: ELISA; ENV 0.03125 ug/ml coated; mAb 1 ug/ml
Procedure: as §3

[15] = target: T1, MSRV complete ENV protein (ENV-T), …; test: ELISA; coated ENV-T 7A 0.0078; ligand 1 microgram
Procedure: as §1, §2

| Binder | optical density [1] [OD] | optic density [2] [OD] | optic density [3] [OD] | optical density [4] [OD] | optic density [5] [OD] | optic density [6] [OD] | optic density [7] [OD] | optic density [8] [OD] | optic density [9] [OD] | optical density [10] [OD] | optical density [11] [OD] | optic density [12] [OD] | optic density [13] [OD] | optic density [14] [OD] | optical density [15] [OD] |
| --- | --- | --- | --- | --- | --- | --- | --- | --- | --- | --- | --- | --- | --- | --- | --- |
| B1 | 1.56 | 0.585 | 0.406 | 2.9 | 2 | 1.87 | 2.22 | 0.166 | 1.42 | 2.29 | 2.84 | 0.945 | 1.21 | 0.367 | 0.625 |
| B2 | 1.52 | 1.66 | 1.26 | 2.89 | 2.38 | 2.26 | 2.67 | 0.777 | 2.3 | 1.99 | 2.52 | 1.81 | 2.17 | 1.09 | 0.692 |
| B3 | 1.8 | 2.51 | 1.98 | 3 | 2.54 | 2.53 | 2.52 | 1.27 | 2.27 | 2.39 | 2.89 | 2.44 | 2.64 | 1.6 | 0.815 |
